According to the Immune Epitope Database (IEDB):

Assays:
[1] = biological target: HLA-A*29:02; assay: IEDB peptide-MHC binding, purified MHC/competitive/radioactivity; filed as Kd, often an IC50 or EC50 that approximates it; ≥ and ≤ were set here for values at or beyond the usual limits of such assays
[2] = biological target: HLA-A*24:02; assay: as above
[3] = biological target: HLA-A*23:01; assay: as above
[4] = biological target: HLA-A*30:02; assay: as above
[5] = biological target: HLA-A*26:01; assay: as above
[6] = biological target: HLA-A*01:01; assay: as above
[7] = biological target: HLA-A*68:01; assay: as above; conditions: source organism: Triticum aestivum
[8] = biological target: HLA-A*11:01; assay: as above; conditions: source organism: Triticum aestivum
[9] = biological target: HLA-A*03:01; assay: as above; conditions: source organism: Triticum aestivum
[10] = biological target: HLA-A*33:01; assay: as above; conditions: source organism: Triticum aestivum
[11] = biological target: HLA-A*31:01; assay: as above; conditions: source organism: Triticum aestivum
[12] = biological target: HLA-A*02:01; assay: IEDB peptide-MHC binding, purified MHC/competitive/fluorescence; filed as Kd, often an IC50 or EC50 that approximates it; ≥ and ≤ were set here for values at or beyond the usual limits of such assays
[13] = biological target: HLA-A*32:01; assay: IEDB peptide-MHC binding, purified MHC/competitive/radioactivity; filed as Kd, often an IC50 or EC50 that approximates it; ≥ and ≤ were set here for values at or beyond the usual limits of such assays
[14] = biological target: HLA-A*02:03; assay: as above; conditions: source organism: Dengue virus 4 Philippines/H241/1956
[15] = biological target: HLA-A*69:01; assay: IEDB peptide-MHC binding, purified MHC/direct/fluorescence; filed as Kd, often an IC50 or EC50 that approximates it; ≥ and ≤ were set here for values at or beyond the usual limits of such assays; conditions: source organism: Mammarenavirus lassaense
[16] = source organism: Mammarenavirus whitewaterense
[17] = source organism: Mammarenavirus guanaritoense
[18] = source organism: Mammarenavirus mopeiaense
[19] = source organism: SARS coronavirus Tor2
[20] = source organism: Lymphocytic choriomeningitis virus (strain Armstrong)
[21] = source organism: Mammarenavirus choriomeningitidis
[22] = source organism: Triticum aestivum
[23] = source organism: Vaccinia virus WR
[24] = source organism: Mammarenavirus lassaense
[25] = source organism: Mammarenavirus juninense

For LRIPTHRHI, the Kd [1, 16] was ≥ 33.7 µM, the Kd [2, 16] was ≥ 77.5 µM and the Kd [3, 16] was ≥ 71.5 µM. The Kd [4, 16] was ≥ 76.9 µM, the Kd [5, 16] was ≥ 77.9 µM and the Kd [6, 16] was ≥ 25.7 µM.

With SFYSDPKRFF the Kd [1, 17] was 0.124 µM, the Kd [2, 17] was 0.74 µM and the Kd [3, 17] was 0.226 µM.

IKIPTHRHI was tested, and the Kd [1, 18] was ≥ 78.9 µM, the Kd [2, 18] was ≥ 57.1 µM and the Kd [3, 18] was ≥ 24.8 µM. The Kd [4, 18] was ≥ 76.9 µM, the Kd [5, 18] was ≥ 77.9 µM and the Kd [6, 18] was 16.6 µM.

In the case of VMPLSAPTL, the Kd [1, 19] is reported as 7.05 µM, the Kd [2, 19] is reported as 13.3 µM and the Kd [3, 19] is reported as 6.45 µM. The Kd [4, 19] was ≥ 75 µM, the Kd [5, 19] was ≥ 77.9 µM and the Kd [6, 19] was ≥ 78.1 µM.

CYSSVNDRLV showed a Kd [1, 20] of 13 µM, a Kd [2, 20] of 1.13 µM and a Kd [3, 20] of 1.87 µM. For the same sequence, the Kd [4, 20] was 3.96 µM, the Kd [5, 20] was ≥ 69.7 µM and the Kd [6, 20] was 11.1 µM.

In the case of PDLKTIHNIL, the Kd [4, 21] is reported as 10.3 µM, the Kd [5, 21] is reported as ≥ 69.7 µM and the Kd [6, 21] is reported as ≥ 70.4 µM.

For VSFQQPLQQY, the Kd [7] was ≥ 70.2 µM, the Kd [8] was 0.138 µM and the Kd [9] was 2.34 µM. For the same sequence, the Kd [1, 22] was 2.84 µM, the Kd [10] was ≥ 70 µM and the Kd [2, 22] was ≥ 70.3 µM. The Kd [3, 22] was ≥ 42.4 µM, the Kd [4, 22] was 6.09 µM and the Kd [5, 22] was ≥ 43 µM. The Kd [6, 22] was 0.0385 µM and the Kd [11] was ≥ 70 µM.

In the case of EFLTRNPAW, the Kd [1, 19] is reported as ≥ 45.2 µM, the Kd [2, 19] is reported as ≥ 84.5 µM and the Kd [3, 19] is reported as ≥ 84.5 µM. The Kd [4, 19] was ≥ 100 µM, the Kd [5, 19] was ≥ 69 µM and the Kd [6, 19] was ≥ 78.1 µM.

Sequence FLHEDLEKL has a Kd ([12]; source organism: unidentified) of 0.01 µM.

With GPLTTLWEGS the Kd ([13]; source organism: Dengue virus 1 Brazil/97-11/1997) was 18.2 µM.

With QILASILSI the Kd [13, 23] was 0.0221 µM.

Sequence GYVTHGFNL has a Kd [1, 19] of 0.839 µM, a Kd [2, 19] of 1.21 µM and a Kd [3, 19] of 0.234 µM. The Kd [4, 19] was ≥ 78.9 µM, the Kd [5, 19] was ≥ 77.9 µM and the Kd [6, 19] was ≥ 78.1 µM.

TLYAVATTI gave a Kd ([13]; source organism: Dengue virus 4 Philippines/H241/1956) of 0.356 µM and a Kd [14] of 0.0112 µM.

In the case of RQMATTTNPL, the Kd ([12]; source organism: Influenza A virus (A/parakeet/Chiba/1/97(H9N2))) is reported as 0.393 µM.

VFQAKSAFV was tested, and the Kd [1, 17] was ≥ 78.9 µM, the Kd [2, 17] was 1.06 µM and the Kd [3, 17] was 0.855 µM. For the same sequence, the Kd [4, 17] was 1.05 µM, the Kd [5, 17] was ≥ 77.9 µM and the Kd [6, 17] was ≥ 31.4 µM.

With LVAEMDGIQY the Kd [1, 19] was 0.103 µM, the Kd [2, 19] was ≥ 70.3 µM and the Kd [3, 19] was ≥ 70 µM. It also gave a Kd [4, 19] of 0.102 µM, a Kd [5, 19] of 0.346 µM and a Kd [6, 19] of 0.246 µM.

CMLDGGNML was tested, and the Kd [15] was ≥ 20 µM and the Kd ([12]; source organism: Lassa virus Josiah) was 0.00297 µM.

With ADAGFMKQY the Kd [1, 19] was 15.3 µM, the Kd [2, 19] was ≥ 77.6 µM and the Kd [3, 19] was ≥ 77.8 µM. For the same sequence, the Kd [4, 19] was ≥ 46.2 µM, the Kd [5, 19] was ≥ 81.5 µM and the Kd [6, 19] was ≥ 87.7 µM.

RVLFNNFKI was tested, and the Kd [13, 23] was 0.000885 µM.

For VFYLYLTFYF, the Kd [1, 19] was 4.15e-05 µM, the Kd [2, 19] was 7.98e-05 µM and the Kd [3, 19] was 6.11e-05 µM. The Kd [4, 19] was 12.4 µM, the Kd [5, 19] was 0.621 µM and the Kd [6, 19] was 0.566 µM.

For LQFIVFLLL, the Kd [1, 16] was 4.67 µM, the Kd [2, 16] was ≥ 77.5 µM and the Kd [3, 16] was 11.3 µM.

In the case of YIAVNDKALY, the Kd [1, 19] is reported as 0.00881 µM, the Kd [2, 19] is reported as ≥ 70.3 µM and the Kd [3, 19] is reported as ≥ 55 µM. It also gave a Kd [4, 19] of 0.141 µM, a Kd [5, 19] of 2.6 µM and a Kd [6, 19] of 0.0129 µM.

In the case of MGEDGCWYGM, the Kd ([13]; source organism: Dengue virus 3 Martinique/1243/1999) is reported as ≥ 36.4 µM.

With AGFAAGLTY the Kd [1, 24] was 6.13 µM, the Kd [2, 24] was ≥ 77.5 µM and the Kd [3, 24] was ≥ 39.2 µM. For the same sequence, the Kd [4, 24] was 0.178 µM, the Kd [5, 24] was ≥ 61.8 µM and the Kd [6, 24] was ≥ 38.5 µM.

MFSPIVPFW showed a Kd [1, 19] of 0.0951 µM, a Kd [2, 19] of 0.111 µM and a Kd [3, 19] of 0.0292 µM. The Kd [4, 19] was ≥ 30.3 µM, the Kd [5, 19] was ≥ 77.9 µM and the Kd [6, 19] was ≥ 78.1 µM.

RTLLGLILFV gave a Kd ([12]; source organism: Variola virus) of 1.27 µM.

RHLIFSYAF gave a Kd [13, 23] of 0.0136 µM.

In the case of RWTQSLRRGL, the Kd [1, 25] is reported as 1.28 µM, the Kd [2, 25] is reported as ≥ 70.3 µM and the Kd [3, 25] is reported as 5.3 µM.

Sequence SWFITQRNFF has a Kd [1, 19] of 0.0532 µM, a Kd [2, 19] of 3.5e-05 µM and a Kd [3, 19] of 4.58e-05 µM. The Kd [4, 19] was 1.03 µM, the Kd [5, 19] was 12.5 µM and the Kd [6, 19] was 0.828 µM.

Sequence SQQKADWIPL has a Kd ([13]; source organism: Dengue virus 2 Jamaica/1409/1983) of 2.79 µM.

ILFPDDVQEL showed a Kd [12, 23] of 0.0011 µM.
